# Assay results as given in US20010041346A1, “METHOD FOR ASSAYING COMPOUNDS AFFECTING SMOOTH MUSCLE CONTRACTILE STATE” (priority 1999, published 2001).
# B1: MBS1-690: 690 amino acid N-terminal half of MBS (protein, UniProt O14974 1-690, looked up, fragment)
# chain: MKMADAKQKRNEQLKRWIGSETDLEPPVVKRQKTKVKFDDGAVFLAACSSGDTDEVLKLLHRGADINYANVDGLTALHQACIDDNVDMVKFLVENGANINQPDNEGWIPLHAAASCGYLDIAEFLIGQGAHVGAVNSEGDTPLDIAEEEAMEELLQNEVNRQGVDIEAARKEEERIMLRDARQWLNSGHINDVRHAKSGGTALHVAAAKGYTEVLKLLIQAGYDVNIKDYDGWTPLHAAAHWGKEEACRILVDNLCDMEMVNKVGQTAFDVADEDILGYLEELQKKQNLLHSEKRDKKSPLIESTANMDNNQSQKTFKNKETLIIEPEKNASRIESLEQEKVDEEEEGKKDESSCSSEEDEEDDSESEAETDKTKPLASVTNANTSSTQAAPVAVTTPTVSSGQATPTSPIKKFPTTATKISPKEEERKDESPATWRLGLRKTGSYGALAEITASKEGQKEKDTAGVTRSASSPRLSSSLDNKEKEKDSKGTRLAYVAPTIPRRLASTSDIEEKENRDSSSLRTSSSYTRRKWEDDLKKNSSVNEGSTYHKSCSFGRRQDDLISSSVPSTTSTPTVTSAAGLQKSLLSSTSTTTKITTGSSSAGTQSSTSNRLWAEDSTEKEKDSVPTAVTIPVAPTVVNAAASTTTLTTTTAGTVSSTTEVRERRRSYLTPVRDEESESQRKARSRQAR
# Biological target: T1, cGK from human saphenous vein smooth muscle cell lysates (Homo sapiens, UniProt Q13976)
# T1 construct: from tissue; host or cells: frozen human saphenous vein, homogenized
# T1 sequence (Q13976 1-671): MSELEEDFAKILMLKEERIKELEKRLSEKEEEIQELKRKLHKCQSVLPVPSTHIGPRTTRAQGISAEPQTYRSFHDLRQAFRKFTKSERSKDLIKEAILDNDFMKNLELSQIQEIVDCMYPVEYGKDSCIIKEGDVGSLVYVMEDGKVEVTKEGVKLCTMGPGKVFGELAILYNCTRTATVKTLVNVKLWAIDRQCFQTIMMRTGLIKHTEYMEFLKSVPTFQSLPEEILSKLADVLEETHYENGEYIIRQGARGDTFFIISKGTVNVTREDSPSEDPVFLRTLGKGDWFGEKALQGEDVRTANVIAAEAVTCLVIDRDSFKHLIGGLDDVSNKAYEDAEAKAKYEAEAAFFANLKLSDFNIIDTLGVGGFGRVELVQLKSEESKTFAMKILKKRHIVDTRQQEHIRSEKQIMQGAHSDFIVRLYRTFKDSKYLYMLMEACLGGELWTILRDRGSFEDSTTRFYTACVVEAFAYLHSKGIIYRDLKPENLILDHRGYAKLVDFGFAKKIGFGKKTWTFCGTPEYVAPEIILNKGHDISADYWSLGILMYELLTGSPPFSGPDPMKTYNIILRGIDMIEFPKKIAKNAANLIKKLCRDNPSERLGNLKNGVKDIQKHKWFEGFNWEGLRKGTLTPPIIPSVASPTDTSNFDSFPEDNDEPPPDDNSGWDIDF
# Assay: GST-fusion protein binding, immunoblot for cGK
# Conditions: GST pulldown, immunoblotting with anti-cGK antibody
# Experimental: Lysates were centrifuged for 15 minutes at 4° C. in a microfuge, and the supernatant was incubated with 100 μl of GST or GST-fusion protein beads overnight, followed by washing in RIPA buffer containing 1% NP40, and boiling for 5 minutes in SDS sample buffer. Associated proteins were resolved by SDS-PAGE and transferred to nitrocellulose, which was blocked in PBS with 0.05% Tween 20 and 5% milk. Primary antibody incubation with rabbit polyclonal anti-human cGPK-CT (Upstate Biotechnology, Lake Placid, N.Y.) was carried out at 1:2000 dilution and rabbit polyclonal anti-MBS antibody (Berkeley Antibody Company, Richmond, Calif.) at 1:1600 dilution in blocking buffer for one hour at room temperature, followed by secondary antibody incubation with anti-rabbit horseradish peroxidase-conjugated IgG (Amersham Life Science, Arlington Heights, Ill.) at 1:500 in blocking buffer. The membranes were developed with ECL (Amersham Life Science, Arlington Heights, Ill.).
# The 586 base pair cDNA insert from AL9, the 177 base pair N-terminal cGK1α truncation mutant, cGK1α1-59, the N-terminal 274 base pairs of cGKIβ, and the N-terminal 816 base pairs of cGKII were cloned into pGEX (Pharmacia Biotech, Piscataway, N.J.). GST fusion proteins were expressed in bacterial strain BL21 (Stratagene, La Jolla, Calif.) according to standard techniques. […]
molecule,measurement,value
B1,binding of cGK from smooth muscle cell lysates,no interaction with cGK
